# Reference: patent US20250352661A1 (MYTHIC THERAPEUTICS, published 2025)
# Numbering of substitutions follows the chain as printed. Names may count otherwise.
# T1: LRRC15 on the surface of LRRC15+ cells (SAOS-2, U87MG) (UniProt Q8TF66 22-581, limits assumed)
# T1 sequence (looked up): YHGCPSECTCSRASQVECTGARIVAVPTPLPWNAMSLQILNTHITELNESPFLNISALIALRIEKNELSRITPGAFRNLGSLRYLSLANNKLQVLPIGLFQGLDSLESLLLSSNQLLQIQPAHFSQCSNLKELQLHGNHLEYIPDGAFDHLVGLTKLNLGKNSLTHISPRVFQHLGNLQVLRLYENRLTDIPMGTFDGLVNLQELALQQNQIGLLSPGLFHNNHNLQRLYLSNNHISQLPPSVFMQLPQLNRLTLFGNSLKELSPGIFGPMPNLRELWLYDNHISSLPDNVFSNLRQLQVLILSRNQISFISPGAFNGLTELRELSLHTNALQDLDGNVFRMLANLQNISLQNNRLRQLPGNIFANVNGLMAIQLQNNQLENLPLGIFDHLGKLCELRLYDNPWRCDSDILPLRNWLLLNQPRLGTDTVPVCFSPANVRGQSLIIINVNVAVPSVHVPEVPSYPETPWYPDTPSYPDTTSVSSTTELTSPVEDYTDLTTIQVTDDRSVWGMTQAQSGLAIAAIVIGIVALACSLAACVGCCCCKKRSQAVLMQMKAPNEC
# T2: Human LRRC15 Protein, His Tag (Acro Biosystems) (human, UniProt Q8TF66 22-538, limits assumed)
# T2 construct: Bought protein with His tag
# T2 sequence (looked up): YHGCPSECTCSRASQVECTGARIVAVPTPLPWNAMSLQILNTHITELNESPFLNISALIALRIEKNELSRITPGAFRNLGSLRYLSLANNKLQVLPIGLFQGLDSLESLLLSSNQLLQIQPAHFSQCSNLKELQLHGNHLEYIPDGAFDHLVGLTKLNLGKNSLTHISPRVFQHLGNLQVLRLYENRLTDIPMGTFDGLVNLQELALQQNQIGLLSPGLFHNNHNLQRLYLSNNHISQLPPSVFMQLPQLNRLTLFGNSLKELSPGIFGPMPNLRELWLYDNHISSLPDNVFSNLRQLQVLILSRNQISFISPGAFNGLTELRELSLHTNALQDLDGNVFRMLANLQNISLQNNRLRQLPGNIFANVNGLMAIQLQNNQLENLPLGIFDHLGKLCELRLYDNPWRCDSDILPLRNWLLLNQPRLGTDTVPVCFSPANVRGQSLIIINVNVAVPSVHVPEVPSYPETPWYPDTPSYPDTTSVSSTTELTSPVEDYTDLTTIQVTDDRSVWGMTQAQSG
# B1: MYT8483 (antibody, IgG1, V domains shown)
# VH: EVQLVESGGGLVQPGGSLRLSCTASGFSFSGSYWICWVRQAPGKGLEWVGCINGGSLDITYYASWAKGRFTISRDTSKNTVYLQKTSLRAEDTAVYYCASDTSYTAYGNFYFNLWGQGTLVTVSS
# VL: EIVMTQSPSPLSASVGDRVIITCQSSQSVLNNNWLAWYQQKPGKAPKLLIYDASSLASGVPSRFSGSGSGAEFTLTISSLQPDDFATYYCQGEFSCGSADCNAFGQGTKLTVL
# B2: MYT9507 (antibody, V domains shown)
# VH: EVQLVESGGGLVQPGGSLRLSCTASGFSFSSSHWICWVRQAPGKGLEWVGCIYAGSIGSTYYASWAKGRFTISRDTSKNTVYLQMNSLRAEDTAVYYCARAPNDIYNYYFNLWGQGTLVTVSS
# VL: EIVMTQSPSTLSASVGDRVIITCDASENIYNYLAWYQQKPGKAPKLLIYYASTLASGVPSRFSGSGSGAEFTLTISSLQPDDFATYYCQSGYVSKSSTFGQGTKLTVL
# B3: MYT9523 (antibody, V domains shown)
# VH: B2 VH
# VL: B2 VL with D24Q, A55D
# B4: MYT2737 (antibody, V domains shown)
# VH: EVQLVQSGAEVKKPGASVKVSCKASGYKFSSYWIEWVKQAPGQGLEWIGEILPGSDTTNYNEKFKDRATFTSDTSINTAYMELSRLRSDDTAVYYCARDRGNYRAWFGYWGQGTLVTVSS
# VL: DIQMTQSPSSLSASVGDRVTITCRASQDISNYLNWYQQKPGGAVKFLIYHTSRLHSGVPSRFSGSGSGTDYTLTISSLQPEDFATYFCQQGEALPWTFGGGTKVEIK
# B5: MYT8417 (antibody, V domains shown)
# VH: EVQLVESGGGLVQPGGSLRLSCTASGLDFRRTNYICWVRQAPGKGLEWVGCIYIADVVHYYASWAKGRFTFSRDTSKNTVYLQMNSLRAEDTAVYYCARGADGGFVYGMDLWGQGTLVTVSS
# VL: EIVMTQSPSTLSASVGDRVIITCQASQSIGNYLSWYQQKPGKAPKRLIYSASTLPSGVPSRFSGSGSGAEFTLTISSLQPDDFATYYCQNNYWLAHYGHPFGQGTKLTVL
# B6: MYT8419 (antibody, V domains shown)
# VH: B5 VH
# VL: B5 VL with G30H, Y92H, H96G
# notes: hu15G7 VL G30H, Y92H; human Fc
# B7: MYT8424 (antibody, V domains shown)
# VH: B5 VH
# VL: B5 VL with Y32H
# notes: hu15G7 VL Y32H, G96H; human Fc
# B8: MYT8422 (antibody, V domains shown)
# VH: B5 VH
# VL: B5 VL with Y32H, Y92H, H96G
# notes: hu15G7 VL Y32H, Y92H; human Fc
# B9: MYT8421 (antibody, V domains shown)
# VH: B5 VH
# VL: B5 VL with G30H
# notes: hu15G7 VL G30H, G96H; human Fc
# B10: MYT8423 (antibody, V domains shown)
# VH: B5 VH
# VL: B5 VL with Y32H, W93H, H96G
# notes: hu15G7 VL Y32H, W93H; human Fc
# B11: MYT8418 (antibody, V domains shown)
# VH: B5 VH
# VL: B5 VL with G30H, Y32H, H96G
# notes: hu15G7 VL G30H, Y32H; human Fc
# B12: MYT8420 (antibody, V domains shown)
# VH: B5 VH
# VL: B5 VL with G30H, W93H, H96G
# notes: hu15G7 VL G30H, W93H; human Fc
# B13: MYT8414 (antibody, V domains shown)
# VH: B5 VH
# VL: B5 VL with Y32H, H96G
# notes: hu15G7 VL Y32H; human Fc
# B14: MYT8413 (antibody, V domains shown)
# VH: B5 VH
# VL: B5 VL with G30H, H96G
# notes: hu15G7 VL G30H; human Fc
# B15: MYT8409 (antibody, V domains shown)
# VH: B5 VH with Y53H, G104H, V106H
# VL: B5 VL with H96G
# notes: hu15G7 VH Y53H, G104H, V106H; human Fc
# B16: MYT8408 (antibody, V domains shown)
# VH: B5 VH with Y53H, G104H, F105H
# VL: B5 VL with H96G
# notes: hu15G7 VH Y53H, G104H, F105H; human Fc
# B17: MYT8410 (antibody, V domains shown)
# VH: B5 VH with Y53H, F105H, V106H
# VL: B5 VL with H96G
# notes: hu15G7 VH Y53H, F105H, V106H; human Fc
# B18: MYT8406 (antibody, V domains shown)
# VH: B5 VH with Y34H, G104H, V106H
# VL: B5 VL with H96G
# notes: hu15G7 VH Y34H, G104H, V106H; human Fc
# B19: MYT8411 (antibody, V domains shown)
# VH: B5 VH with G104H, F105H, V106H
# VL: B5 VL with H96G
# notes: hu15G7 VH G104H, F105H, V106H; human Fc
# B20: MYT8407 (antibody, V domains shown)
# VH: B5 VH with Y34H, F105H, V106H
# VL: B5 VL with H96G
# notes: hu15G7 VH Y34H, F105H, V106H; human Fc
# Biological target: T1, LRRC15 on the surface of LRRC15+ cells …
# Test: cell-based or functional assay
"Internalization in U87MG cells (10 nM, 24 hours), FOB = fold over background (IgG control)","Internalization in U87MG cells (10 nM, 24 hours), FOS = fold over samrotamab",Binder
2.25 fold over background (IgG control),1.45 fold over samrotamab,B1
3.58 fold over background (IgG control),3.01 fold over samrotamab,B2
3.05 fold over background (IgG control),2.4 fold over samrotamab,B3
2.07 fold over background (IgG control),1.24 fold over samrotamab,B4
2.76 fold over background (IgG control),2.06 fold over samrotamab,B5

# Biological target: T2, Human LRRC15 Protein, His Tag (Acro …)
# Test: BLI; dissociation pH 7.4 black, pH 5.4 grey [D00010 FIG. 1H]
# Excerpt: For each individual plot, antigen binding proteins were captured on anti-human Fc biosensors and associated with LRRC15 at pH 7.4. Dissociation was at pH 7.4 (black) or pH 5.4 (grey). Major X-axis ticks=100 seconds, with left dashed vertical line=0 seconds. Major Y-axis ticks=0.5 nm and octet plots are shown MYT5712 and MYT6080-MYT6121.
# Multiple LRRC15-binding monoclonal antibodies have been described in the literature and can be used as a template for engineering pH-dependent binding. We selected discovery RabMAb clone 15G7 (rabbit VH SEQ ID NO: 378, rabbit VL SEQ ID NO: 451; humanized VH SEQ ID NO: 382, humanized VL SEQ ID NO: 455) as a LRRC15-binding monoclonal antibody for pH-engineering via histidine scanning. […] To generate pH-dependent sequence variants, individual amino acid residues within the heavy chain CDRs were systematically substituted with a histidine (or alanine if H was already present in a given position; e.g., MYT6099), one at a time (rabbit, MYT6080-6121). Desirable mutations were transferred to a humanized framework (humanized, MYT 8387-8411). After allowing for four days of protein expression, cell culture supernatants were collected, quantified by SDS-PAGE analysis, and the pH dependence of the variant was evaluated using biolayer interferometry (BLI) on an Octet RED 96e instrument. Briefly, cell culture supernatants were diluted based on qualitative expression level of the variant determined by visual examination of SDS-PAGE gels, 5 μL of cell culture supernatant was diluted into 195 μL of 1×PBST, pH 7.4 for high expressors, 25 μL of cell culture supernatant was diluted into 175 μL of 1×PBST, pH 7.4 for medium expressors and 100 μL of cell culture supernatant was diluted into 100 μL of 1×PBST, pH 7.4 for low expressors for loading onto the sensor tips.
row,binding result,Binder
1,binds,B6
2,binds,B7
3,binds,B8
4,binds,B9
5,no binding (tested: 50 nM LRRC15),B10
6,binds,B11
7,binds,B12
8,binds,B13
9,binds,B14

# Biological target: T2, Human LRRC15 Protein, His Tag (Acro …)
# Test: BLI; dissociation pH 7.4 black, pH 5.4 grey [D00009 FIG. 1G]
row,binding result,Binder
1,no binding (tested: 50 nM LRRC15),B15
2,no binding (tested: 50 nM LRRC15),B16
3,no binding (tested: 50 nM LRRC15),B17
4,no binding (tested: 50 nM LRRC15),B18
5,binds,B19
6,no binding (tested: 50 nM LRRC15),B20

# Biological target: T1, LRRC15 on the surface of LRRC15+ cells …
# Test: cell-based or functional assay
# Remark: another data set of the same source
"Internalization in SAOS-2 cells (10 nM, 24 hours), FOB = fold over background (IgG control)","Internalization in SAOS-2 cells (10 nM, 24 hours), FOS = fold over samrotamab",Binder
2.62 fold over background (IgG control),1 fold over samrotamab,B1
3.16 fold over background (IgG control),1.33 fold over samrotamab,B2
3.23 fold over background (IgG control),1.37 fold over samrotamab,B3
2.01 fold over background (IgG control),0.62 fold over samrotamab,B4
2.68 fold over background (IgG control),1.04 fold over samrotamab,B5
